The source of these data is article PMC9528872 (Nature Communications, 2022).

Assay [1] has as its target SARS-CoV-2 receptor binding domain (RBD), biotinylated (SARS-CoV-2, Wuhan-type, UniProt P0DTC2, biotin (BirA, on the Avi tag)). Kind of assay: BLI. The settings on record: both partners purified.
Assay [2] concerns the target T1, Tor2 SARS-CoV spike (Toronto, 2003) (SARS-CoV, strain Tor2).
T1 construct: also called Tor2 spike protein
Kind of assay: ELISA; antibody at 2 ug/ml against Tor2 SARS-CoV spike. On the technique in general: In an ELISA, binding on a coated surface is turned into a signal by an enzyme label.

B1: Ab 2-7 scFv (scFv, V domains shown)
VH: QVTLKESGPTRVKPTQTLTLTCTFSGFSLSTTGVGVGWIRQPPGKALEWLALIYWNDDKRYSPSLKSRLTITKDTSKNQVVLTMTNMDPVDTATYYCARISGSGYFYPFDIWGQGTTVTVSS
VL: NFMLTQPHSVSESPGKTVTISCTRSSGSIASNYVQWYQQRPGSSPTTVIYEDNQRPSGVPDRFSGSIDSSSNSASLTISGLKAEDEADYYCQSYDSSSLWVFGGGTKLTVL
Usually Kd stands for the constant that tells how readily two partners part at equilibrium. Low values mean a tighter complex, high ones a looser complex. Usually koff stands for a measure of how fast the partners let go of each other. Read a low koff as a long-lived complex. As a reminder, the kon is a measure of how fast the partners come together. High values mean faster complex formation, low ones slower complex formation. In assay [1], B1 registered a Kd of 0.107 nM, a koff of 4.81e-05 s⁻¹ and a kon of 452000 M⁻¹ s⁻¹.

B2: Ab 2-7 scFv-Fc (Fc fusion)
VH: B1 VH
VL: B1 VL
With B2, the binding result in assay [2] is “binds”.
